The values below come from the DeepSol protein solubility set.

The nature of this data set: soluble on expression in E. coli; label from the status in PepcDB or PDB records.
For the sequence “NYNHPFTQLGNQVFPTTPIVSGVRGRVVEVPVQANQPLKTGDILFKIDPVPFEAEVARLEAKVKEASQGALGLESDLREAEAAVLKAQADRDKAQREFSRYQRGFDRGAFTEQDLDTRRQAYKAAEAMLDVAILQQEQAQIALDSEIGGENTQVAQLLAELRKAEFNLEQTIVRAPTDGYVTQLALR”, the “soluble on expression in E. coli” value is given as “soluble”. Turning to “MKDILIIAGPTAVGKTDISIKIAQKMNGEIISADSMQIYKYMDIGSAKVTKEEMKGIKHHLIDVVDPSEEFSVASFKKMAQNAIDDITSRKKYPIIVGGTGLYINSLICNYDFTGAYKDEAYRESLQAIAKDKGKEYLHEKLKNIDIDSYKKLYPNDLKRVIRALEVYKITGKTISELNSNVDLYDIPYNIHYFILNMDRQKLYERINLRVDIMLRNGLVDEVIKLRDMGYNSNMQSMKGIGYKEILSYLEGCITLEEAVELIKKGSRHYAKRQLTWFRKDERAVWINKDIYKNDDDIVFKILSSIEEILEHHHHHH”, the “soluble on expression in E. coli” value was “not soluble”. “MGSDKIHHHHHHMTVDTRPAVGNPGYATSSPELERWLARHISEGFGAESLVLSMLRSGYDAAFARSAVATAMGHRRPDASATQPAPRLARREVPVLFSLQSPSIRLYQHLLSDAECDALVELARGRLARSPVINPDTGDENLIDARTSMGAMFQVGEHTLIQRIEDRIAAVLGVPVDHGEGLQILNYKPGGEYQPHFDFFNPKRPGEARQLRVGGQRTATLVIYLNTPQAGGATAFPRIGLEVAPVKGNAVYFSYLQPDGKLDERTLHAGLPVQSGEKWIATKWLREHPYRAGA”: the “soluble on expression in E. coli” value was “not soluble”. Then “MGSDKIHHHHHHMMTDTHASKNTSTDRSTLDEETVPGGGHTSFILKRGQILQITDVEGGGNVGLLLFNAHQTSERLNLPDTLKGQHTAKLTAGYCLYSDMGRVLAAIVTDTCGWHDSMGGVLNAQEVHEKYGQGRYQELRNGFFRNGMDNLLVEMGKWNLNLQDLLMTINLFSKVTVDAQGQFRFHANHSQAGNYIELYAPMDTLVVLTALQHPMDPNPTYAPRPIALTWSRAEGEDVAKYCREFREENARAFHNTERGYL”, with “not soluble”; and “MDSHVGEVDIFQQCKYIHEVELVNMKLQMRILETHIETKDRLLRNLEDIIDEQESRIANMEDFIQGRATSYTNRSNMLKGISVLSLDFGNLSEENLRLKNALSQMQKVARVNELLETDEDYESDMTSNEDRFALSRDSSCSVPRSVSPQPTGDVIKPYPQMVQSMREEGHWKKLQRCAEELKTEKDELKRLALDTKDAFNVCMAEMRMMLTSKTTDFFRVLIERYKAEMEKRKQLHNQLVELNGNIRVFYRIRPQLASETDNQKPVVVIDEMDNGVVHVSNTTGTRKTSAGADKVIPTDFSQDQIFNEVSPIITSCIDGYNVCIFAYGHTGSGKTYTMDGPVTMPGINQRAIMQLFETAKERTGDIKYDIKVAMMEIYNEKIRDLLNTSNTNLAIRQTEEGRSSIPGLEEVSVNSAEEVTETLARGRKNKAVAATEANIESSRSHVIVRVLVSATNLITKATTVGRLNLVDLAGSERVSQTNATGQLLKEAQAINKSLSELGNVVLALRQNQKHIPFRNCQLTRILEDSLNGDSKTLVIVHLSPDAKSLNESISSVNFAEKIGQVFTKSGTMKREPTRRSMTGISSGQRREIPASPRK”, with “soluble”. Turning to “MGHHHHHHSHDKAIKETSILEEYSINWTQKLGAGISGPVRVCVKKSTQERFALKILLDRPKARNEVRLHMMCATHPNIVQIIEVFANSVQFPHESSPRARLLIVMEMMEGGELFHRISQHRHFTEKQASQVTKQIALALRHCHLLNIAHRDLKPENLLFKDNSLDAPVKLCDFGFAKIDQGDLMTPQFTPYYVAPQVLEAQRRHQKEKSGIIPTSPTPYTYNKSCDLWSLGVIIYVMLCGYPPFYSKHHSRTIPKDMRRKIMTGSFEFPEEEWSQISEMAKDVVRKLLKVKPERRLTIEGVLDHPWLNSTEALDNVLPSAQLMMDKAVVAGIQQAHAEQLANMRIQDLKVSLKPLHSVNNPILRKRKLLGTKPKDSVYIHDHENGAEDSNVALEKLRDVIAQCILPQAGENEDEKLNEVMQEAWKYNRECKLLRDTLQSFSWNGRGFTDKVDRLKLAEIVKQVIEEQT”, the “soluble on expression in E. coli” value is “soluble”. Then “MDGMGTLTRYLEEAMARARYELIADEEPYYGEIPDLPGVWATGKSLKECEANLQAALEDWLLFLLSRGETPPPLGEVRIELPHGEAA”, with “soluble”; and “EDATPETVEYRQLSAADLLADTHLLREVFGLLVLAHYRTEPSDLARLLDAPNLTVRALTHEGHVVAVALLAQEGGLSASTRATMYEGGRVRGNMLPDVLSTQLRDEAAGVPVGQRVLRIATHAAVRSRGLGSKLLSEIRAEFADHVDWVGVSYGATPELVRFWADNGYNTVHLATSRNATSGEYSVVMLDP”, with “not soluble”. The result for “MNDITASSSVILDSLLIDDSLITCEVCFEVFNHENRPPKLLPCGHNFCESCIFSLCLHQEYYLLDSIKCPTCRREFTTNTARQAPTNYDLCKILENLFRRKEQNVTVIEVPELVHNLPPPMAEVSSSATKIVTSQQQQQQQPAVATKMPRHHVSKKMKALAKRTEESKHFRCADCQRKISQKNLFRVSRYCVDCTSTSRMTIVCLECCVNHHNGHDLLTEDSLHHNQLKTLSDLRKLRHRILDSSDEFDRRADEIRTSGMDVCGGLSAEKHNLLTYTLASIDDVMRRIEMAPILFPPVLRTIRDEQSHNFSRLEKLSAQLEKSLVSRKNTKPTSLTFIENMNDTTYQGLQRSVQNQSLNKSTLSIRQSRVSLRTDDSLFHESISSLTRLMHQHPMCLQLEFHHSTVSSKDTVTQRKQKIMSCAHATTSMLDMDLTQVSMVPIFADVLLNCFYQLNRLSKNKFVGDKKYRRCDIWKQVQCSYTELFGITAKHFPSHHPERVDILDDLAYLCHLYSDVADQGTVTICLIEAARARASDSSGLTEIEQQRSEERLELIDEHLTECRRLQKLLELRKTSKTKKNGGLKRLFGGCFIAQEKANDSLVY” reads “not soluble”; that for “MNDISAPEQYDLQTAALKVPPHSIEAEQAVLGGLMLDNNAWERVLDQVSDGDFYRHDHRLIFRAIAKLADQNSPIDVVTLAEQLDKEGQTSQVGGLGYLSELAKNTPSVANIKAYAQIVRARATLRQLIGISTEIADSAFNPEGRTAEEILDEAERQIFQIAEARPKTGGPVSVNDLLTKAIDRIDTLFNSDNAITGLSTGYTDLDEKTSGLQPADLIIVAGRPSMGKTTFAMNLVENAVLRSDKVVLVYSLEMPGESLIMRMLSSLGRIDQTKVRAGRLDDDDWPRLTSAVNLLNDRKLFIDDTAGISPSEMRARTRRIVREHGEIGMIMIDYLQLMQIPGSSGDNRTNEISEISRSLKALAKEFNCPVIALSQLNRSLEQRPNKRPINSDLRESGAIEQDADVIMFVYRDEVYHPETEHKGIAEIIIGKQRNGPIGTTRLAFIGKYTRFENLAPGSYNFDDD”, “not soluble”. For the sequence “MHNLANLYRTGWPGGVEKDTQKALDLYQKMIDLDVPQGFYDMGAMIGNRAGVKNPATDGLTFLDKAASLGNPPALTELGKFYIYVAKKKDLGLAYTHCAASQGYAPASYELGAYYKIVEHNFPKALVYYQVSVSQGGKSAAFFLSRVFGSETPPASAMWYAPDEKLREAYYSIYKKLEADPLEHHHHHH”, the “soluble on expression in E. coli” value was “not soluble”. Then “MGSDKIHHHHHHVASQTPGTEAQSQTVQPGRIAAISLHTSPLDQPGTGDAGGMNVYIVEVAKRLAERGIAVDIFTRATSFEQPPEVELAPGVTVRNIAAGPYGTLDKTALINYLCPFVHGMLRAEAEHLGGSYDLVHTHYWLSGQAGWPVAREWGVPLVHSMHTMARVKNMSLAEGDTPEPEERVRGEDALVALADRLIANTDDEAAQLINYYGASPSRVSTVFPGVDLTTFTPGSRAESLRRLGLPEDTILLLFVGRVQRLKAPDVLLRAAARLLELNPSLRDRLVVAVVGGQSGTGYREPWLLSDLADSLGIADLVRLEPPCPRAELVHYYRAATVTVVPSHSESFGLVAVESQACGTPVVAARVGGLPTAVRDGVSGVLIDGHDPHDYANVLHRMITEPRWRERMGAAGIHHASGLSWESTVDGLLAAYRDALHQCRLTVPCR”, with “not soluble”; and “MSDPRDLMSEFQKLRVETSKIQNEFKEKPGYVEDKLHKNTQEICQQILKKQGKSQKSQENQNAFIENLMSELKTAKSKLNETENQISDLHEATKQQESQANLWNDLVAKISDKNLEMMLKIQKSQDLMIMKMQEGSAVQDVPIETEKSAKNGPFFEILVIWTDSRGPVVPGNHGKLRVCGSDTIRQIKPRINSLAGIDTISFRTFCDDKFLEDDHTLAHYNIREGSTICVFFH”, with “not soluble”. With “MAHHHHHHMLRLSFVHRKSRHQNVLRRGRPHMQKYRELNRWQRQAQGISKWDQSQSHRPLPYVERFNPEGVGVTRGTSAFAWQWWHTQQPWLPNVAPPNHTGRKITNTSGTTEETAKPPAWDEEFTSVVLSMTDSEIREYLLDKLTDVIFAETQRDGYELRRLDFEGNPLTELPERRIIESFVFEEETLRERVIYQVVEGVFRLSPTSADRRELRSVETIIDYVLTHVSAARPDSRPRVTPAALAVMQQCPLQPELGFVHALPVDSRDEILQEWERMHHLDWQFGKAVYVPRSREETRGNLTWLREERHNAERVEFMKRVASGEAKAEHMRRIAEAACTERPETMHG”, the “soluble on expression in E. coli” value is recorded as “not soluble”. Then “MGSDKIHHHHHHMDAKTIIENRFQSQKLIQTAWSDSPERIVFHFGAMQSQNYGQSLWAVGSRMTTPSEESVEQAINNGEIIRTWLLRGTIHLFSAKDYHWMMDLIAPTIDKICKPYRAKLGLTDEVLHKATEVVSEIVSEQAVTRKDLAAHLATKDLPSAGIPFAQLLVYLSSRKVICSGPNETFRNTMHIPADTNHFTREEAIKELAKRYIQSHAPATLKDFCFWSGLTVTDAKIGLADMPKMGDYYITTLVENGTMPTTIPLAGFDEWIIGYRDRSVVLPEIWHDEIMTKNGIFRPAIITEGKVVGKWEKPKKRAELDGDFWDRYIQFRNML”, with “not soluble”.

As to “MQEAVNSALPGDVIIVKPGSYYDHVTVTTNNLVIRSESGNPEDTVIEGYNPTADVFTIEADNITLEGFTIMGAGANCSGLCLHGCTNCLIDSNTFFNDFRGIYLKSSLNNDILNNIVIKGGRGISIEESNHNSVSKNKVSECGYGINLLNSKDNRISKNTVAGNKDYGILVQSSDSNTFSRNNASENGRGIHIGNSDGNTLSNNKISLNEVHGLFVCPKSDKNLVYNNYFSNTLNVEANNGTSNVYHKSRTKGENIVGGPYIGGNYWATPEGSGFSETAADNNGDGIADEKYLFETSDYFDPLPLIAYKPPEPVLPTANLSINTPEDYAPLSVQFTDLSENATSRTWDFENDGVIDSPDETPVYTYPSPGTYTVNLTAACENGTDTKLITINVGENNVAEIQPESAPGEESMSTTGSQAEQNSEQEGISSIPGFEMLYGIFCLLAIFLYKESTKLEHHHHHH”, the “soluble on expression in E. coli” value is on record as “not soluble”. Then “MSLIHIAIAEDDFRVAQIHERLIKQLDGFKIIGKAANAKETLALLKEHKADLLLLDIYMPDELGTALIPDIRSRFPEVDIMIITAATETRHLQEALRAGIAHYLIKPVTADKFRQVLLQYKEKRKLLMSQPEVSQSMIDHIFGNGVKTALPAEDLPTGINSITLRKIKEALQTASEGLTAEELGEKMGASRTTARRYAEYLVSKEEARAELEYGIIGRPERKYYLAADEGHHHHHH”, with “soluble”; and “MGSDKIHHHHHHANTQTNIQLERTSSDIEHALYYASFAANSHNTQSWKVNLDPKQKRLGVFLNNKRSLNVVDPNNRELYISIGCYIQSLKKSFEAYGYNVSISNIAPSKENKYQVVLINYQKLKNNKINNKQLDIIQKRHTDKRKFQKKPINRTVVSSLIKKYNNVYYYAKGSKTFKYLQKGSLAAAAKQYKNQDFLKEQGKWLRFSNQEVEKKQDGISGDMLGLNPIIKTLYYLTSNHKNATSNNFVKQSKNTLINQVENCAGFFVITGEQNISKWIAVGEKSQAFWYDCVRNNIAVQPISAMIEIPSYNQKLQQNLGKSQPVQLILRVGYVNSYGKNVGPRRNLKDYITVKK”, with “not soluble”.
